The data set can be described thus: soluble on expression in E. coli; label from the status in PepcDB or PDB records.
With “MGSDKIHHHHHHMQTPSYFTPASFDFLTKLEHNNNREWFKANQAEYELQVRTPALHFIEAMSGSVVDLSPRLTAVAKKVGGSLMRPQRDSRFSKDKTPYKLNVGIQFRHFQAKDVHAPGLYLHLANDGCFIAAGIWHPESKALNAIRHCIDENPKGYQKAIANLTAAGFELSGDSLSRPPRGFDKSHPLIDELKRKDFIAIKDISLEQVCQLDLVDFCAQQYQYTSALMYYLCFALDLDF”, the “soluble on expression in E. coli” value was “not soluble”.

In the case of “MRRVQSNTLDVGIDVHLKNWSTAILSKHSVLRRFLQVDCEGPTLISYIVAKHLAHASRGTISPYRTNGSAYGGFAIYMYLLIKMR”, the “soluble on expression in E. coli” value is recorded as “not soluble”.

With “MTGSACFFSTDFLFGRYGPTVCIIPSENIPDKANTMIRPDFQEYLPSYYFSSVNPHTVYPKLQCRLKAETCIIGGGLSGLCTALPLAEHGHEAVVLEAARIGFGASGRSGGQVISDYACGMGEIEKQVGLEQAQWFWQQSLQAVELVDERVRKHAIDCDWQRGYATVAVRPQHWEELQQWHEHAQRHYGASHYQLWDKAELKQQLDSDMYQGAQFDPLSGHLHPLNYTLGVASAAAEAGAQIFEQSPMTRIEPYQNGWLVYTPEGSVECKNVVYAVNTYVGLNPIFRPLERKAIAVSTFIIATEPLGARTKGLIRNNMAVCDNRHILDYYRLSADGRLLFGGKDNEFIDNPARMTELVRQDMLKVFPQLADVRIEYSWGGECDITANLVPHFGRLTSNVFYTQGYSGHGMAITGIAGLAVAEAILGDECRLKPFEQLCQPNIILQPFLRKLGSFLGSKYYQWKDSRLEHHHHHH”, the “soluble on expression in E. coli” value is “not soluble”.

For the sequence “MSLSTRVFPERPILVVDDERAALDGFEVALVSSGYTNIVTMDDSRKVLPFIAEHEAELILLDLIMPHVSGTELIEEIKRRRPEVPIIIITAVNDIDSVVECIRNGAQDYILKPVDKDHLRNRVQQALERRELERENRLLRASLLDGEIRHPEAFSDIVTQDQKMHAIFRYCEAVAPSTKPILITGETGTGKELVAQALHRLSGRKGEFVAVNIAAFDDPVFADTLFGHSRGAFTGADTPRAGLVEKAAGGTLFLDEIGDLPALSQVKLLRLLQEKEYFPVGSDNAKKANVRIVASTLKNLVDLRHRGLFRDDLYYRLTTHRIHIPPLRERPGDIPCLLDHFLELDAREQKRKPPSYHPELINLLRSYAFPGNIRELRGMISDAFMNHASHMLSSSSFRQYIMNEGHHHHHH”, the “soluble on expression in E. coli” value is on record as “soluble”.

For the sequence “MPRHRISGINWLAHYNELIRFWTRKTGSRGDVEDATHDVITKLLESNVSTISSPRSYLHSSIRNRLTDSYRQNKILDLVPIHDLPEDSHPLQPNDPVTHTCTMQLLTALKEALQELPLKCRQVFIWHRLEGYSQTEIAEKLDISVNMVEKYMIRATRHLRDRLQDHIPD”, the “soluble on expression in E. coli” value was “not soluble”.

Turning to “MLRSSLLPFSYLYEKIINFRNTLYDKGFLKIKKLPVPVISVGNLSVGGSGKTSFVMYLADLLKDKRVCILSRGYKRKSKGTLIVSEYGNLKVSWEEAGDEPYLMAKLLPHVSVVASEDRYKGGLLALEKLSPEVFILDDGFQHRKLHRDLNILLLKKKDLKDRLLPAGNLREPLKEIRRADALVLTYQEVEPFEFFTGKPTFKMFREFCCLLNSDFEEVPFDILKEREVIAFSGLGDNGQFRKVLKNLGIKVKEFMSFPDHYDYSDFTPEEGEIYLTTPKDLIKLQGYENVFALNFKVKLEREEKLKKLIYRIFYLEHHHHHH”, the “soluble on expression in E. coli” value was “soluble”.

As to “MGHHHHHHGGHMSLMASISSLGVGSGLDLSSILDSLTAAQKATLTPISNQQSSFTAKLSAYGTLKSALTTFQTANTALSKADLFSATSTTSSTTAFSATTAGNAIAGKYTISVTHLAQAQTLTTRTTRDDTKTAIATSDSKLTIQQGGDKDPITIDISAANSSLSGIRDAINNAKAGVSASIINVGNGEYRLSVTSNDTGLDNAMTLSVSGDDALQSFMGYDASASSNGMEVSVAAQNAQLTVNNVAIENSSNTISDALENITLNLNDVTTGNQTLTITQDTSKAQTAIKDWVNAYNSLIDTFSSLTKYTAVDAGADSQSSSNGALLGDSTLRTIQTQLKSMLSNTVSSSSYKTLAQIGITTDPSDGKLELDADKLTAALKKDASGVGALIVGDGKKTGITTTIGSNLTSWLSTTGIIKAATDGVSKTLNKLTKDYNAASDRIDAQVARYKEQFTQLDVLMTSLNSTSSYLTQQFENNSNSKEGGS”, the “soluble on expression in E. coli” value is recorded as “soluble”.

Consider “MHIADMTMFYAPASGGVRTYLEAKHRHLWHYPGIRHSVLVPGASYRQANGIHEVPAPPLPFGNGYRFPLRRGPWRKVLRNLQPDLIEVGDPYLTAWAALDARRRLDVPVIGFYHSDLPLLVSNRMGAWLGTNADNYVSKLYGHFDRVLAPSRVMAEKLMRLGVADVHVQPLGVDLVTFHPSNRDPGLRQELGLDEETRLLVFAGRGSREKNLPVLLDAIQRLGDGYHLLLVGSNMPTRVPRNTSVVDHFCDSREVARLLASSDALLHAGDQETFGLVALEAMASGIPVVAVRAGALAEIVPERCGVLCAPNNGDAMACAVRELFSHDVELRGQRARRHVERQHAWDAVVAGLLLHYHAVLGDSEARFPRYGLEHHHHHH”, for which the “soluble on expression in E. coli” value is listed as “not soluble”.

Turning to “MNDMSDWKPKRFWKQAAVAETAEGYAVELDGRPVRTPAKAPLLLPTRALAEAIAAEWDAQESEVDPINMPFTRTANAAIDKVRIQQAEVADMLAAYGDSDLLCYRADSPAELVELQAQTWDPALDWAAETLGVRLRPVQGVMHQPQPASAIETLTRKVHALNPFQLAAFHDLVSLSGSLVLGFAAALNWRKADEIWQISRLDETWQEEQWGPDDEARALAAVKRAAFLHAKAAYDISTLEHHHHHH”, the “soluble on expression in E. coli” value is “not soluble”.

For the sequence “SLESYTVNRGKGVTRYDICQLPSNSPIEDDRAEEIVQVPILQDNNIKTSTDWMFFGVFDGHGGWTTSSKLRDQLIGYVINELGTIYKPVQGEENLRYVPNSATIDQAMKNGFLKLDHELVNKNIEKLLTDGNKAKAAELLMPALSGSCALLSFYDTNSQMLKVAVTGDSRAILGSFKDNHWTVRQLSIDQTGANPSEVARIISEHPNEPKVIRNGRVLGSLEPTRAFGDCRYKLPAVIQERIYKQFFGRPLPNQLKSPPYVTAEPIITTTKINPNEHDFLVMASDGLYEMLTNEEIVGLVVKWMEKADMIKPRKSWFGFGSADSKLPEVKDVTNDKALKKPLNNKLGNSFLLEDNNVSTHLIRNALSNGGSREQTSMLISIPNPVSRRYRDDLTVTVVFFGKDTKGEDENGTLEVNWNATAG”, the “soluble on expression in E. coli” value is given as “soluble”.

As to “MNARLENLMQWLKEKNVEAAFLTSTPNVFYMTNFHCEPHERLLGMFVFQEKEPILICPKMEEGQARNAGWAHEIIGFTDTDRPWDMIAKAIKDRGINANAVAIEKELLNVERYEELTKLFPNAAFTSAEEKVRELRLIKDEKELSILREAAKMADYAVEVGVNAIKEDRSELEVLAIIEHELKTKGIHKMSFDTMVLAGANSALPHGIPGANKMKRGDFVLFDLGVIIDGYCSDITRTVAFGEISEEQTRIYNTVLAGQLQAVEACKPGVTLGAIDNAARSVIADAGYGDFFPHRLGHGLGISVHEYPDVKAGNESPLKEGMVFTIEPGIYVPNVGGVRIEDDIYITKDGSEILTKFPKELQFVK”, the “soluble on expression in E. coli” value is reported as “soluble”.

With “SLIDMGDYTLKELETWNEKIEGIVNEMGLNYYNQEFEIISYNGMLEAEAYTGMPSRYPHWSYGKAYEKQKTLYGYDLVGLPYEMVINSNPCIAYLMKENTLLLQILTMAHVYGHNDFFKNNRLFREGTDASETVNMFKNDADTIRNYIDNPAIGNEKVEKILDAAHAIRYQTHRVIGEKRLSYEEIRNKIIQDYNSSYKPRSIIEPYEKPVEPDLSKIPLEPEDDIIYFIENYGNLQEWERNVIEIVRRETAYFIPQIETKIMNEGWASFWHYTILNELKLPDGLHLEFLKRHNDVLSPILGSLNPYYLGFKILKDIEDRYGRDKIFEVREIERDESFIRKYLTRELCEELNLFEFSKRRGEYIIDNVADEEGWKNIRNSICSGCGMNSIPVIRVVELSKKDNNLILEHLYDGRELNMQYAEETLKYVVNLWKGKVTLKTTIEGKEYRIVCDENKKICEVK”, the “soluble on expression in E. coli” value is on record as “soluble”.

For “MNRTKGDEEEYWNSSKFKAFTFDDEDDELSQLKESKRAVNSLRDFVDDDDDDDLERVSWSGEPVGSISWSIRETAGNSGSTHEGREQLKSRNSFSSYAQLPKPTSTYSLSSFFRGRTRPGSFQSLSDALSDTPAKSYAPELGRPKGEYRDYSNDWSPSDTVRRLRKGKVCSLERFRSLQDKLQLLEEAVSMHDGNVITAVLIFLKRTLSKEILFRELEVRQVALRHLIHFLKEIGDQKLLLDLFRFLDRTEELALSHYREHLNIQDPDKRKEFLKTCVGLPFSAEDSAHIQDHYTLLERQIIIEANDRHLESAGQTEIFRKHPRKASILNMPLVTTLFYSCFYHYTEAEGTFSSPVNLKKTFKIPDKQYVLTALAARAKLRAWNDVDALFTTKNWLGYTKKRAPIGFHRVVEILHKNNAPVQILQEYVNLVEDVDTKLNLATKFKCHDVVIDTYRDLKDRQQLLAYRSKVDKGSAEEEKIDALLSSSQIRWKN”, the “soluble on expression in E. coli” value was “soluble”.

With “MAAPLGGMFSGQPPGPPQAPPGLPGQASLLQAAPGAPRPSSSTLVDELESSFEACFASLVSQDYVNGTDQEEIRTGVDQCIQKFLDIARQTECFFLQKRLQLSVQKPEQVIKEDVSELRNELQRKDALVQKHLTKLRHWQQVLEDINVQHKKPADIPQGSLAYLEQASANIPAPLKPTLEHHHHHH”, the “soluble on expression in E. coli” value is reported as “not soluble”.

“MSALDCPAGTVLFRAGQDCPGFLRLDEGSIRVTLTAANGREVVLYRVRPGDVCLQTFACLTEGRSYSAEGVAETRVRGHLMSHADFRTALARDEAFRTEVMQAVARRFADFEHLVEDVALTGFDTRLARVLLRLAKGDTVAATHEALAAETASGRAFVSRRLAEFARQGLVELARGRVTLCDRSGLERIAAEER”: the “soluble on expression in E. coli” value is recorded as “not soluble”.

As for “MPFRNAVQTASPPTTPKQKAHHDRIHVHPFGLGTHLCQRPLPHDQTVRRGRTQAQTFRTPHDRAGGRFRADRRSCLHPRIPCRIGTRSGLGVLCHSRLPVPDFCVSMFCVAVFLAHAQQGIDKHRNAV”, the “soluble on expression in E. coli” value was “not soluble”.

For the sequence “QYAIERHFYSQDFSYISSKFNAIENELKSSLEDVFKQANNSTLYMWVFEGKLNVYQNSSLTIPQNRAYSISSPQVLNHERAIEWSEDSLNIRAFAFQAGEYQVVLGMSINHHILFLDKLD”, the “soluble on expression in E. coli” value is given as “not soluble”.

Turning to “MGSDKIHHHHHHMDTNKLIPLLSDMAIFVTVIEQGNFSKAAKKLGVTPSAVSRQISRLEDALGIKLLQRTTRQLALTESGKLTFDYCKQMVESADQAVNASRSATSTVSGLLRVSAPKSLANKVLRPLFVEFLKCYPDIQLHLKVTDRILDPIHDGVDFLIHINDYPIEALVNIKIGRVEQVLCASPEFLQSHTPPTHPDDLKYLSCICLGENMVDNRWRFINENQQTTVQVAGSYLLNHSDMRRDAIEQGFGIGPLPDYIAQQGIKTGKLIPLLEGWQLTGSYQGDICLQYVQSKYLPNKNRVFIDFMKQKLLIIQPDS”, the “soluble on expression in E. coli” value is on record as “not soluble”.

“MIVCMSVSLLRSYAVRRALGALVVAGFLGAGVTGCSNDAGAKTENTVDGSPTPVSTPTDGEGDGAGEPVEETPAEPEQRPTPVEPEAMKTGDKAGAIAAAQYFVEVIEYSMHTSTTDLLEKYSYEHCDRCAHFVEVINTRQEKNVLPKSVVINSSQEGHPEFRGEGAIIWRVPMRLQISEQWETGKEPRKEDVKVSISVANENGRWVLVGIVAED”: the “soluble on expression in E. coli” value was “not soluble”.

The values are drawn from the DeepSol protein solubility set.
